{"source": "patent US7572594B2", "about": "“Screening assays for agonists or antagonists or receptor activator of NF-κB” (Immunex Corporation, priority 2000, dated 2009)", "key": {"[1]": {"test_system": "mouse TRAP promoter (SEQ ID NO:12)", "test": "mouse TRAP promoter/luciferase reporter in 293/EBNA cells", "format": "cell-based", "details": "24 hours after transfection, 0.4 ng RANK vector, 20 ng RANK-L vector", "description": "(§1) This example describes the activation of the TRAP promoter. A 2.6 kb DNA fragment containing the human TRAP promoter was obtained by digesting the plasmid pBL2HT2.2 with the restriction endonuclease ApaI. The cloning of the human TRAP gene 5′ region and the construction of pBL2HT2.2 are fully described in Reddy et al. (Bone 16:587-593 (1995)). A DNA containing the mouse TRAP promoter (SEQ ID NO:12) and a DNA containing the murine MMP-9 promoter (SEQ ID NO:11) also were used for these experiments. DNAs containing the promoters were fused to the luciferase reporter gene. These promoter/reporter constructs were transfected into human 293/EBNA cells along with various combinations of expression vectors that encoded full-length human RANK (SEQ ID NO:2) and human full-length RANK-L proteins (SEQ ID NO:6).\nFor the mouse TRAP promoter (SEQ ID NO:12), 2×10^5 293/EBNA cells were transfected using DEAE/dextran with 40 ng of a plasmid encoding approximately 2 kb of the mouse TRAP promoter (SEQ ID NO:12) fused to a luciferase reporter, 20 ng of an expression vector encoding RANK-L (SEQ ID NO:6), and 0.4 ng of an expression vector encoding RANK (SEQ ID NO:2). Twenty four hours after transfection, luciferase activity in cell lysates was measured according to manufacturer's instructions (Promega) using a EG&G/Berthold luminometer. […]"}, "[2]": {"test_system": "murine MMP-9 promoter (SEQ ID NO:11)", "test": "murine MMP-9 promoter/luciferase reporter in 293/EBNA cells", "format": "cell-based", "details": "40 ng reporter", "description": "as §1\nFor the murine MMP-9 promoter experiments, 4.1 kb of the murine MMP-9 promoter (SEQ ID NO:11) were fused to a luciferase gene and transfected (40 ng) into 293/EBNA cells. Transfection of either RANK (SEQ ID NO:2) alone or the combination of RANK (SEQ ID NO:2) plus RANK-L (SEQ ID NO:6) increased reporter expression 2.5-fold."}, "[3]": {"test_system": "endogenous c-jun kinase (JNK)", "test": "JNK immune-complex kinase assay in transfected 3T3 cells", "format": "cell-based, murine", "details": "3T3 cells 24 hours after transfection, absence of RANK-L stimulation", "procedure": "This example describes evaluating murine 3T3 cells transfected with plasmids containing DNA encoding human FEO RANK (SEQ ID NO:9), and murine 3T3 cells expressing recombinant DNA encoding human wild type RANK (SEQ ID NO:1) for their relative ability to activate endogenous c-jun kinase (JNK) in the absence of RANK-L stimulation. JNK is known to be activated as a consequence of RANK signal transduction.\nFor JNK assays, whole cell extracts were prepared from 3T3 cells 24 hours after transfection. Cells were lysed in a buffer containing 20 mM HEPES, pH 7.4, 2 mM EGTA, 50 mM β-glycerol phosphate, 1 mM DTT, 1 mM sodium orthovanadate, 1% Triton-X 100, 10% glycerol and the protease inhibitors leupeptin, pepstatin A, and PMSF. Clarified lysates were immunoprecipitated with 1 μg each anti-JNK (FL) and anti-JNK (C17) antibodies (both from Santa Cruz Biotechnology, Inc. Santa Cruz, Calif.). […] JNK activity was determined by an immune-complex assay using 1 μg of a fusion protein of glutathione-S-transferase and amino acids 1-169 of […] (GST-cJun (1-169)) (UBI, Lake Placid, N.Y.) and 5 μCi of [^32P]-ATP as substrate in 40 μl of assay buffer at 30° C. for 20 min. […]"}, "RANK": {"test_system": "RANK", "test": "radioimmune assay of reporter surface expression in 293/EBNA cells", "format": "cell-based", "details": "48 hours after transfection", "procedure": "Additionally, surface expression of human IL-2α receptor can be analyzed using a radioactive antibody against IL-2α receptor. For the mIL-4R-specific radioimmune assay, mouse anti-human IL-2α monoclonal antibody reactive with mIL-4R was labeled with ^125I via a Chloramine T conjugation method; the resulting specific activity is typically […]. After 48 hours, cells transfected with pGL2-MMP-9/human IL-2 receptor were washed once with media (DMEM, 12 5% FBS). Non-specific binding sites were blocked by the addition of pre-warmed binding media containing 5% non-fat dry milk and incubation at 37° C./5% CO2 in a tissue culture incubator for one hour. The blocking media was decanted and binding buffer containing ^125I anti-mIL-4R (clone M1; rat IgG1) was added to the cells and incubated with rocking at room temperature for 1 hour. After incubation of the cells with the radio-labeled antibody, cells were washed extensively with binding buffer (2 X) and twice with phosphate-buffered saline (PBS). Cells were lysed in 1 ml of 0.5M NaOH, and total radioactivity measured with a gamma counter."}}, "data": [{"molecule": "wild type RANK: full-length human RANK, receptor activator of NF-κB (SEQ ID NO:2), expressed from vector or retrovirus (protein, listed as Homo sapiens) MAPRARRRRPLFALLLLCALLARLQVALQIAPPCTSEKHYEHLGRCCNKCEPGKYMSSKCTTTSDSVCLPCGPDEYLDSWNEEDKCLLHKVCDTGKALVAVVAGNSTTPRRCACTAGYHWSQDCECCRRNTECAPGLGAQHPLQLNKDTVCKPCLAGYFSDAFSSTDKCRPWTNCTFLGKRVEHHGTEKSDAVCSSSLPARKPPNEPHVYLPGLIILLLFASVALVAAIIFGVCYRKKGKALTANLWHWINEACGRLSGDKESSGDSCVSTHTANFGQQGACEGVLLLTLEEKTFPEDMCYPDQGGVCQGTCVGGGPYAQGEDARMLSLVSKTEIEEDSFRQMPTEDEYMDRPSQPTDQLLFLTEPGSKSTPPFSEPLEVGENDSLSQCFTGTQSTVGSESCNCTEPLCRTDWTPMSSENYLQKEVDSGHCPHWAASPSPNWADVCTGCRNPPGEDCEPLVGSPKRGPLPQCAYGMGLPPEEEASRTEARDQPEDGADGRLPSSARAGAGSGSSPGGQSPASGNVTGNSNSTFISSGQVMNFKGDIIVVYVSQTSQEGAAAAAEPMGRPVQEETLARRDSFAGNGPRFPDPCGGPEGLREPEKASRPVQEQGGAKA", "values": [{"measurement": "increase of reporter expression (luciferase)", "setting": "[1]", "result": "approximately 2 fold"}, {"measurement": "increase of reporter expression (luciferase)", "setting": "[2]", "result": 2.5, "unit": "fold"}, {"measurement": "activation of JNK", "setting": "[3]", "result": "not"}, {"measurement": "transcriptional activation, reporter detected on the cell surface", "setting": "RANK", "result": "resulted in transcription of muIL-4R"}]}]}
